Assay results: patent US20030180282A1, “Method of treatment of thrombotic events” (priority 2002, published 2003)

What was measured:
platelets [1] = experiment: PFA-100 platelet function analyzer, closure time; assay type: cell-based, human; conditions: TNK 12 μg/mL, t-PA 4 μg/mL
Procedure: Blood samples for the in vitro study were obtained from 9 healthy volunteers. None of the subjects smoked or had hypertension, diabetes, or an abnormal hematocrit. None had received aspirin or any other antiplatelet drugs. All subjects underwent blood sampling after at least 30 minutes of rest and 2 or more hours of fasting. Blood was drawn from an antecubital vein between 8 am and 10 am in order to avoid any diurnal influence. A 21-gauge butterfly needle was used to draw blood into a tube containing 3.8% sodium citrate (1:9 volume); the first 1.5 mL of free running blood was discarded. One tube was kept as an internal control. A second tube was incubated with tenecteplase (TNK) for 30 minutes at room temperature in order to achieve a final concentration of 12 μg/mL. The third tube was similarly incubated with alteplase (t-PA) to achieve a concentration of 4 μg/mL. The concentrations of TNK and t-PA that were chosen approximated conventional plasma levels observed in patients receiving TNK and t-PA bolus (30 mg, and 15 mg, respectively; data on file, Genentech, Inc., South San Francisco, Calif.). Fresh solutions of TNK and t-PA were prepared in Dulbecco's phosphate buffered saline (DPBS) ex tempore on the morning of the platelet studies.
The PFA-100™ (Dade Behring, Deerfield, Ill.) is a high shear-inducing platelet function analyzer that simulates primary hemostasis after injury to a small vessel under flow conditions (see, e.g. Kundu, S. K. et al. (1996) Clin. Appl. Thromb. Hemost. 2:241-249). The device provides a constant negative pressure that aspirates a whole blood-citrate mixture, which comes into contact with a collagen-coated membrane and then passes through an aperture. The time required to obtain occlusion of the aperture is digitally recorded and is a measure of shear-induced platelet aggregation.
For all comparisons, statistical analyses were done by using repeated measures ANOVA. […] Normally distributed data were expressed as mean±SE, and skewed data as median (range). […]

platelets [2] = experiment: in vitro comparison of TNK versus t-PA on platelet activation and surface receptor expression (15 parameters); assay type: cell-based, human; conditions: TNK 12 μg/mL, t-PA 4 μg/mL, 30 minutes
Procedure: Blood samples for the in vitro study were obtained from 9 healthy volunteers. None of the subjects smoked or had hypertension, diabetes, or an abnormal hematocrit. None had received aspirin or any other antiplatelet drugs. All subjects underwent blood sampling after at least 30 minutes of rest and 2 or more hours of fasting. Blood was drawn from an antecubital vein between 8 am and 10 am in order to avoid any diurnal influence. A 21-gauge butterfly needle was used to draw blood into a tube containing 3.8% sodium citrate (1:9 volume); the first 1.5 mL of free running blood was discarded. One tube was kept as an internal control. A second tube was incubated with tenecteplase (TNK) for 30 minutes at room temperature in order to achieve a final concentration of 12 μg/mL. […]
For the platelet aggregation (PA) studies, platelet-rich plasma (PRP) was first isolated. […] Platelet counts were determined for each PRP sample with a Coulter Counter ZM (Coulter Co., Hialeah, Fla.). […] Platelet aggregation was determined by using a 4 channel Chrono-log Lumi-Aggregometer (model 560-Ca) and expressed as the maximum percentage of light transmittance change (% max) from the baseline at the end of the recording time. […] Platelet aggregability curves were recorded for 6 minutes and analyzed according to internationally established standards (see, e.g., Ruggeri, Z. M. (1994) Semin. Hemat. 31:229-239). […]

B1: t-PA: recombinant tissue plasminogen activator, thrombolytic agent (Genentech) (protein, UniProt P00750 36-562, looked up)
Tissue-type plasminogen …: SYQVICRDEKTQMIYQQHQSWLRPVLRSNRVEYCWCNSGRAQCHSVPVKSCSEPRCFNGGTCQQALYFSDFVCQCPEGFAGKCCEIDTRATCYEDQGISYRGTWSTAESGAECTNWNSSALAQKPYSGRRPDAIRLGLGNHNYCRNPDRDSKPWCYVFKAGKYSSEFCSTPACSEGNSDCYFGNGSAYRGTHSLTESGASCLPWNSMILIGKVYTAQNPSAQALGLGKHNYCRNPDGDAKPWCHVLKNRRLTWEYCDVPSCSTCGLRQYSQPQFRIKGGLFADIASHPWQAAIFAKHRRSPGERFLCGGILISSCWILSAAHCFQERFPPHHLTVILGRTYRVVPGEEEQKFEVEKYIVHKEFDDDTYDNDIALLQLKSDSSRCAQESSVVRTVCLPPADLQLPDWTECELSGYGKHEALSPFYSERLKEAHVRLYPSSRCTSQHLLNRTVTDNMLCAGDTRSGGPQANLHDACQGDSGGPLVCLNDGRMTLVGIISWGLGCGQKDVPGVYTKVTNYLDWIRDNMRP
- closure time (PFA-100) compared with DPBS (platelets [1]): prolongation
- platelet function, 10 of 15 parameters, compared with baseline DPBS values (platelets [2]): diminished platelet function
